This is an account of results in US20150266963A1 (ARGEN X B V, published 2015).

Experiment [1] concerns the target T1, human CD70 expressed on the surface of cells (human, UniProt P32970 1-193).
T1 sequence (looked up): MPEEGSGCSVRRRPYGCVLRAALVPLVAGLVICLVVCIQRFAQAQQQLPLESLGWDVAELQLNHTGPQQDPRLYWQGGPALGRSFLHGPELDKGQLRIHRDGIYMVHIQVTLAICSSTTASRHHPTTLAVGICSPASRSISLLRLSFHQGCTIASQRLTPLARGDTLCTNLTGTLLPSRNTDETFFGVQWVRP
The experiment can be described thus: cell-based or functional assay.

The target of experiment [2] is T2, recombinant human CD70 (Flag-TNC-CD70) (human, UniProt P32970 39-193).
T2 construct: extracellular domain; Captured by anti-Flag mAb in ELISA; as 'recombinant human CD70' immobilised on Biacore CM5 chips; TNC is for trimerisation; also called recombinant CD70; human recombinant CD70; not shown: Flag tag and TNC trimerisation domain
T2 sequence (looked up): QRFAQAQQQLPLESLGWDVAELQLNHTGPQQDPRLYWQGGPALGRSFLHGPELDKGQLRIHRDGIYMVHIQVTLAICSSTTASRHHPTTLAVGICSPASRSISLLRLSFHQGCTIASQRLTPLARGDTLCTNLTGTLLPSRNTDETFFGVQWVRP
The experiment is described as follows: inhibition ELISA; Flag-TNC-CD70 captured by anti-Flag mAb; competitor CD27-Fc. Here is the method: (§1) From selected phage transfected into TG1, individual colonies were picked randomly for growth in 96 well plates. After IPTG induction according to standard protocols periplasmic fractions (penis) containing Fabs were prepared. […] In this assay, Flag-TNC-CD70 is captured by an anti-Flag mAb and binding of CD27-Fc is detected via a biotinylated anti-CD27 mAb and strep-HRP in the absence or presence of CD70 Fabs (FIGS. 2 and 3) or CD70 mAbs (FIG. 4). In FIG. 2B it can be seen that 27B3, which has an identical VH as 9D1, but contains a somewhat different light chain, seems to block binding of CD27 to CD70 more efficiently, which was in line with the better off rate of this Fab as measured on Biacore (data not shown). Table 3 indicates the blocking potency (expressed as IC50) for the various llama-human chimeric mAbs tested in the CD70 inhibition ELISA. […] FIG. 3 is a composite of an experiment testing llama CD70 Fabs for blocking activity (in the inhibition ELISA, see white bars) and for CD70 binding (binding ELISA, black bars). For the binding ELISA, Flag-TNC-CD70 is captured by an anti-Flag mAb and binding of the Fabs is detected using an anti-myc-HRP mAb, which recognizes the MYC tag fused to the C-terminus of the Fd fragment. For comparison purposes, known monoclonal antibodies to CD70 (SGN70 described in US 2010/0129362 A1, clone 1F6; and MDX69A7 described in WO2008/074004 FIGS. 5A and 5B) were tested in parallel. […] Of interest is clone 59D10, which as Fab has no blocking activity, but when converted into a chimeric IgG was antagonistic (see Table 3). Amino acid sequences of the VH and VL domains of binding and blocking llama-derived Fab clones are shown elsewhere herein (Tables 6-9).

The target in experiment [3] is T2, recombinant human CD70 (Flag-TNC-CD70). The experiment can be described thus: inhibition ELISA: Flag-TNC-CD70 captured by anti-Flag mAb, Fab titrated, remaining binding of CD27-Fc detected. Here is the method: as §1
(In an ELISA, binding on a coated surface is turned into a signal by an enzyme label.)

Experiment [4] has the same target. The experiment is described as follows: Biacore; CD70 coated CM5 chip; Fab in periplasmic fraction. As for the experimental part:
Phage eluted from rounds 3, 4 and 5 of selection were transfected into TG1 and plated clonally; individual clones were picked randomly for further analysis. Periplasmic fractions containing Fabs were prepared from IPTG induced small scale cultures the off rate of each Fab was determined using a CD70 coated CM5 chip in a Biacore binding assay. Clones with Fab having off rates similar to that of 27B3 were sequenced.
For orientation: Surface plasmon resonance follows binding to a sensor surface in real time, without labels.

The IC50 is the midpoint of a concentration-inhibition curve. The koff is the rate constant with which the complex falls apart.

B1: 9B2 chimeric llama-human mAb (antibody, human IgG1, V domains shown)
VH: QLQVVESGGGLMQPGGSLRLSCAASGFTFSGSAMSWVRQAPGKGLEWVSSIYSHSMYTYYADSVKSRFTISTDNAKNTLYLQMNSLKPDDTAVYYCAASSDYEGLFVSWGQGTQVTVSS
VL: QAVLTQPPSLSASPGSSVRLTCTLNSANSVGSYDISWYQQKAGSPPRYLLYYYSDSLSHQGSGVPSRFSGSTDASANAGLLLISGLQPEDEADYYCSAYNRGSHVFGGGTKLTVLG
As to B1, the “IC50 (ng/ml), IL-8 secretion in Raji / HT1080-CD27 co-culture assay” value in experiment [1] is 213 ng/mL. The IC50 in experiment [2] was 0.126 µg/mL.

B2: 5B2 chimeric llama-human mAb (antibody, human IgG1, V domains shown)
VH: QVQLVESGGDLVQPGGSLRLSCAASGFTVSNPAMSWVRQAPGKGLEWVSEITNYGYNRYYADSVKGRFTISTDNAKNTLYLQMNSLRSEDSAVYYCTASLGLEYGYGDWGQGTQVTVSS
VL: QSALTQPPSVSGTLGKTLTISCAGTSSDVGYGNYVSWYQQLPGTAPKLLIYRVSTRASGMPDRFSGSKSGNTASLTISGLQSEDEADYYCASYTTNNKPVFGGGTHLTVLG
As for B2, the “IC50 (ng/ml), IL-8 secretion in Raji / HT1080-CD27 co-culture assay” value in experiment [1] amounted to 19 ng/mL. Further, the IC50 in experiment [2] was determined as 0.092 µg/mL.

B3: 5B2 (Fab, V domains shown)
VH: QVQLVESGGDLVQPGGSLRLSCAASGFTVSNPAMSWVRQAPGKGLEWVSEITNYGYNRYYADSVKGRFTISTDNAKNTLYLQMNSLRSEDSAVYYCTASLGLEYGYGDWGQGTQVTVSS
VL: QSALTQPPSVSGTLGKTLTISCAGTSSDVGYGNYVSWYQQLPGTAPKLLIYRVSTRASGMPDRFSGSKSGNTASLTISGLQSEDEADYYCASYTTNNKPVFGGGTHLTVLG
notes: also called 5B2 Fab
With B3, the “IC50 (read off the curve)” value in experiment [3] was about 2 nM.

B4: 24B6 chimeric llama-human mAb (antibody, human IgG1, V domains shown)
VH: EVQLQESGGGVVQPGGSLRLSCAASGFTFDDYAMSWVRQAPGKGLEWVSSIYMYDSSTYYADSVKGRFTISTDNAKNTVYLQMNSLKSEDTAVYYCAKDINRSYGSSWSHFGPIFSSWGQGTQVTVSS
VL: QPVLTQPSAVSVSLGQTARITCQGGYYTHWYQQKPGQAPVLVIYINNNRPSGIPERFSGSISGNTATLTISGAQVEDEADYYCQSGSSSTIPVFGGGTKLTVLG
As to B4, the IC50 in experiment [2] was 0.42 µg/mL.

B5: 36G2 Fab (Fab, V domains shown)
VH: EVQLVESGGGLVQPGGSLRLSCAASGFTFSVYYMNWVRQAPGKGLEWVSDINNEGGTTYYADSVKGRFTISRDNAKNSLTLQMNSLRAEDTAVYYCVRDAGYSNHVPIFDSWGQGTQVTVSS
VL: QAVVTQEPSLTVSPGGTVTLTCGLKSGSVTSDNFPTWYQQTPGQAPRLLIYNTNTRHSGVPDRFSGSILGNKAALTITGAQPEDESDYYCALFISNPSVEFGGGTQLTVLG
notes: Germlined 27B3 Fab, periplasmic fraction
B5: the koff in experiment [4] amounted to 0.00011 s⁻¹.

B6: 53G1 Fab (Fab, V domains shown)
VH: EVQLVESGGGLVQPGGSLRLSCAASGFTFSVYYMNWVRQAPGKGLEWVSDINNEGGTTYYADSVKGRFTISRDNAKNTLYLQMNSLKPEDTAVYYCVRDAGYSNHVPIFDSWGQGTTVIVSS
VL: QTVVTQEPSFSVSPGGTVTLTCGLTSGSVTSTNFPTWYQQTPGQAPRLLIYNTNSRHSGVPSRFSGSILGNKAALTITGAQADDESDYFCALFISNPSVEFGGGTQLTVLG
notes: as for B5
Regarding B6, in experiment [4], the koff stood at 0.0002 s⁻¹.

B7: 39D5 Fab (Fab, V domains shown)
VH: EVQLVESGGGLVQPGGSLRLSCAASGFTFSGYYMNWVRQAPGKGLEWVSDINNEGGTTYYADSVKGRFTISRDNAKNTLYLQMNSLRAEDTAVYYCVRDAGYSNHVPIFDSWGQGTTVTVAS
VL: QTVVTQEPSLTVSPGGTVTLTCGVTSGSVTSDNFPTWYQQTPGQAPRLLIYNTNTRHSGVPDRFSGSILGNKAALTITGAQPEDESDYYCALFISNPSVEFGGGTQLTVLG
notes: as for B5
In the case of B7, the koff in experiment [4] was 0.00012 s⁻¹.

B8: 39C3 Fab (Fab, V domains shown)
VH: EVQLVASGGGLVQPGGSLRLSCAASGFTFSVYYMNWVRQAPGKGLEWVSDINNEGGTTYYADSVKGRFTISRDNSKNTLYLQMNSLRAEDTAVYYCARDAGYSNHVPIFDSWGQGTTVTVSS
VL: QAVVTQEPSFSVSPGGTVTLTCGLKSGSVTSDNFPTWYQQTPGQAPRLLIYNTNTRHSGVPSRFSGSILGNKAALTITGAQADDESDYYCALFISNPSVEFGGGTQLTVLG
notes: as for B5
Consider B8, for which the koff in experiment [4] is 0.00025 s⁻¹.

B9: 41H8 Fab (Fab, V domains shown)
VH: EVQLVESGGGLVQPGGSLRLSCAASGFTFSVYYMNWVRQAPGKGLEWVSDINNEGGTTYYADSVKGRFTISRDNSKNTLYLQMNSLRAEDTAVYYCARDAGYSNHVPIFDSWGQGTQVTVAS
VL: QAVVTQEPSFSVSPGGTVTLTCGLTSGSVTSTNFPTWYQQTPGQAPRLLIYNTNSRHSGVPDRFSGSILGNKAALTITGAQPEDESDYFCALFISNPSVEFGGGTQLTVLG
notes: as for B5
For B9, the koff in experiment [4] amounted to 0.00022 s⁻¹.

B10: 53F1 Fab (Fab, V domains shown)
VH: EVQLVESGGGLVQPGGSLRLSCAASGFTFSVYYMNWVRQAPGKGLEWVSDINNEGGTTYYADSVKGRFTISRDNAKNTLTLQMNSLKPEDTAVYYCVRDAGYSNHVPIFDSWGQGTQVTVAS
VL: QAVVTQEPSFSVSPGGTVTLTCGLKSGSVTSDNFPTWYQQTPGQAPRLLIYNTNTRHSGVPDRFSGSILGNKAALTITGAQADDESDYFCALFISNPSVEFGGGTQLTVLG
notes: as for B5
Regarding B10, the koff in experiment [4] was 0.00023 s⁻¹.

B11: 42D12 Fab (Fab, V domains shown)
VH: EVQLVESGGGLVQPGGSLRLSCAASGFTFSVYYMNWVRQAPGKGLEWVSDINNEGGTTYYADSVKGRFTISRDNSKNTLYLQMNSLRAEDTAVYYCVRDAGYSNHVPIFDSWGQGTQVTVSS
VL: QAVVTQEPSFSVSPGGTVTLTCGLTSGSVTSTNFPTWYQQTPGQAPRLLIYNTNTRHSGVPSRFSGSILGNKAALTITGAQADDEAEYFCALFISNPSVEFGGGTQLTVLG
notes: as for B5
Turning to B11, the koff in experiment [4] turned out to be 0.00016 s⁻¹.

B12: 40F1 Fab (Fab, V domains shown)
VH: EVQLVESGGGLVQPGGSLRLSCAASGFTFSVYYMNWVRQAPGKGLEWVSDINNEGGATYYADSVKGRFTISRDNSKNSLYLQMNSLRAEDTAVYYCARDAGYSNHVPIFDSWGQGTQVTVSS
VL: QAVVTQEPSFSVSPGGTVTLTCGLKSGSVTSDNFPTWYQQTPGQAPRLLIYNTNTRHSGVPDRFSGSILGNKAALTITGAQADDEAEYFCALFISNPSVEFGGGTQLTVLG
notes: as for B5
For the molecule B12, the koff in experiment [4] was 0.00016 s⁻¹.
